This series can be described thus: soluble fraction after stress (log2 fold change); higher = more stays soluble; pooled small domains, quantitative proteomics. As to conditions: stress: 75 degC.
For the sequence “HMQVAPDLMQRLTSQGHVDEKLSDALVHARQITNFEGRRRQMQFIGKLMRKLSEESIEAVKDALNEQRM”, the “soluble fraction (log2)” value is -0.313.

As to “HMQVDENNINKRIDKYLSENTEYSRSTIQKMIDNGNITVNSKPTKSSYKLELNDIITIDNNFKE”, the “soluble fraction (log2)” value was 0.0359.

In the case of “HMQVEYTRGELIQDLEGGKIVYAGISPSRETPTGEVNFILDSGLTRTLYVTDVSEIEQLLISYDIDPEVKK”, the “soluble fraction (log2)” value was -0.0196.

As for “HMQVFDSNEIDEVVKKVIENNPQAVADFKKGKSNALQFLAGQVMRETKGRFNPNVVQERIRLLLT”, the “soluble fraction (log2)” value was 0.671.

Regarding “HMQVLLTRREKEILKLIAEGLTSAEIGKRLFISTTTVDTHRKHLLEKLKAGNTAILIKTAVQLDLI”, the “soluble fraction (log2)” value is -2.53.

On to “HMQVPWYQRLKEKRLEYGVSQNKLATHIGISRQYMSEIETGKVTPSDSLQATLFDILEQFNPDA”, for which the “soluble fraction (log2)” value was -0.817.

For the sequence “HMQVRVERSRDKVVISGVNYYIHPVRKGETVYSIARAYGITTQDLVRENPSAAEGLKEGQSIRIPERLVD”, the “soluble fraction (log2)” value was -0.438.

As to “HMQVSDEGPIKAILQEVLDKSPTQLADYASGKVKLRQYFFGEAMKALKGKANPQVINKLLDEMLPPVAA”, the “soluble fraction (log2)” value is -0.0324.

On to “HMQVSDVTELRTILEKVITENESVATEFKEGKDAAMNFLVGQGMKATRGAADPALLKEIITGIL”, for which the “soluble fraction (log2)” value is -0.0525.

On to “HMQVSITGYLGGEKIGLFDDAKFKALAAKQGIAIDYRKAGSPAMMDADRKGMDYLFPSSRAAVEYGNAKGV”, for which the “soluble fraction (log2)” value is -0.00209.

With “HMQVTDTGTIEGEIDKVLAANPDRVTEYHDGKEKILGWFVGQVMQTTKGKANPQMVNQLFLEKLK”, the “soluble fraction (log2)” value came to 0.0105.

On to “HMQVTPQVLRLLDVLGDKELSLRQIAEALGLSDRKNIMRNYVVPALDSGRVVRTVPNKPNSRFQKYRK”, for which the “soluble fraction (log2)” value was -0.739.

In the case of “HMQYDALVLNLLQEKNLTSESLKDAQRAFAKSHNLSTLPSKSQILQAYFQLLEQGKIEKNPDFELLL”, the “soluble fraction (log2)” value is -0.394.

Consider “HMQYFDIETEIQKFIKSENNLSDFDKETLQSFLYQLSKGSPEENTAKKVVDILNKFLPLTTAIINMIKALT”, for which the “soluble fraction (log2)” value was determined as 0.0503.

Take “HMQYYITKIANYDQVSPNLLVRTAEGQYMVKTNADILDTDVTKLTEEEIRKDWGYLFENGFSELV”: the “soluble fraction (log2)” value is -0.498.

As for “HMRAAEPTTDAQRDRRRRIVLTAMTMLQERGYDEIQMRDVAQQAGVALGTLYRYFPSKEQLFAHVLVE”, the “soluble fraction (log2)” value is -1.71.

As to “HMRAAFEHLTIGQTVSGLVKSQARGVSLVEIEGQTVAMRLPQPVAVGDTLRLRFAGHMPQPVFLLDT”, the “soluble fraction (log2)” value is -1.59.

In the case of “HMRADYVGGLDPAGDNFLALRTGPGSGYAMILPMGPGTFVTVLRRNGKWLLVELEDGTRGWAYGSYILG”, the “soluble fraction (log2)” value was -2.32.

In the case of “HMRAGALTTLTERERNVFDLVVTGHSNPEIARQLSIADVTVKTHVGHILSKLGVRDRVHLVIWAHRQGLAD”, the “soluble fraction (log2)” value was -2.84.

For the sequence “HMRAMWENLFFQYKEGFLPEEYYKQGIATGIRLAGPKFVEMNIPMQKEFEDEVHRLLAEHEKSVK”, the “soluble fraction (log2)” value was -0.914.

Regarding “HMRASVTYVVQVNGKLRGKLEVAPDIDPEELKKLALEVENVKHSLQGWTVKKVIVIPGKMVSIAAGK”, the “soluble fraction (log2)” value is -1.78.

As for “HMRAVEGKRLKRLLRTNLIAIERDQILQYPLRKRPLAIVTRAVRATNPDAVIVNDAGDDVFARALDVLLAS”, the “soluble fraction (log2)” value was -1.44.

As for “HMRDAKSQLQEALQKSGRLPEYELVSVEGPPHAPVFTYRVRIDGAVVGEGQGASKQAAQQAAAQSALKSG”, the “soluble fraction (log2)” value is 0.0311.

Turning to “HMRDDAIQQGREIVERELHRLDLAYTTLTDVLAKLEYEKLDDLYAAVGFGIRSPHSVAAAALQVERDKA”, the “soluble fraction (log2)” value is -0.322.

As for “HMRDGHEQLQGVLSAIKFHQANFLIGVLDDGTTVKGNMLSPQVGLEYTFRGRRERHPRWGEQFAFMDYRV”, the “soluble fraction (log2)” value is -3.31.

In the case of “HMRDIGKNIRYYREKKGYSQEQLAQLLFVTRQTVSNYETSRSRPDVETLVKLAGLLDIDVTDLIYGPR”, the “soluble fraction (log2)” value was -2.74.

As for “HMRDKSITFSEFVKLLDEGQIQKVTLTGNEILGTQKSGDKFRTYAPPQYEGLGNKLVERSVEVTAKE”, the “soluble fraction (log2)” value is 0.378.

As to “HMRDLVTYVVQVNGKLRGKLEVSPSTDDNSLKTMALELENVQRALEGLSVKKVIVIPGKMVSIAAG”, the “soluble fraction (log2)” value was -0.972.

For “HMRDVVVVPDLSGLTQMEALSKLDAESLNIGEINYGVSEMPEGVIFKQDPVYGTELMKGDTVDIFISGR”, the “soluble fraction (log2)” value is -0.423.

With “HMRDYKTHLQEVLQSKGEVNIWYKLIDEKGPDHNKKFVMQVGIDSKILGFGEGKSKKEAEQVAARKALDNI”, the “soluble fraction (log2)” value is -0.384.

“HMREGIQLGDPVRVIRDPLFGKIGAVSGLPSELRAIPTESEVRVLEVRFPDGTTTVVPRANIEVIEG”: the “soluble fraction (log2)” value came to 0.487.

Turning to “HMREIEVNYAAGDSVRVIDGPLAGFIGVVSSVEPDKNKVNVTVSMFGRETPVELELDQVETLD”, the “soluble fraction (log2)” value stood at 0.111.

As to “HMREISSDELHSLFSADQRGDLVINETTRLSIEKLYALHTPEEREAKVNELSGVLPSEAHRQLVHFLDYFD”, the “soluble fraction (log2)” value was -1.42.

As for “HMREITVEELYELEGIRIVGTIPGISAWVAESGRQMVFLVGQKVKGHDLLEVGESRVVLRKGDSVVNVLL”, the “soluble fraction (log2)” value was -1.56.

Regarding “HMREKPRETFQRIAEKVGQTLRKGPVRVQQMDLLFSESREQVMEVLRAMAESGEIRIQDDTLHWNGHT”, the “soluble fraction (log2)” value is 0.173.

“HMRELPKRPEIRYAAGDRVFHKAFGNGLVKQVAQTAGGARVTVDFGEGKGVKTFAGDAPMIKI”: the “soluble fraction (log2)” value worked out at 0.391.

Turning to “HMRELSDFEKLLFTTTLERKMINLAMLLTRSNKADSKDLIQDSYLKAIENQVQFNGNNIDAWVITILKNTF”, the “soluble fraction (log2)” value was -0.352.

As to “HMRENAARNRNVNLDIGETLRVDAWSPERRARVQYRGAAWDVELAPNAPATVGEFRIVEVRGNVLVVTP”, the “soluble fraction (log2)” value was -0.604.

As to “HMREPIPVPSRPIRAGDLVEIPGTNRPAEVTAVKGDRLVLKAGVLSMTVKNDEVRLIEDDERAAM”, the “soluble fraction (log2)” value is 0.505.

As for “HMREQAHEVAGKLGYPVMVKASAGGGGKGIRIVRTEDELDQAFEAAQSETKAAFGDDQMYMEKVI”, the “soluble fraction (log2)” value was -0.0878.

Consider “HMRESDQSTVELSLERTIQEALMVNPRTSSVEEFSFEWGTGRVKVSFIVYSVDGEPFTVDSIIE”, for which the “soluble fraction (log2)” value was -2.45.

For the sequence “HMREVEAPRDLLAALGERPGALDAWKALSFTHQREYVEAIEDARKPETRERRIANAVKMVAERS”, the “soluble fraction (log2)” value stood at 0.386.

In the case of “HMREVPHGEYEVKIEKLELVESKAGDPMVTVWFKVLAGDYKGSMIFMNQVITKGFQIHIMNEFLR”, the “soluble fraction (log2)” value was -0.308.

Turning to “HMREYEKAVDYVRRMISSGSLNVGDRLPTERELSLELDISRNSTREAMRMLENMGIIVSRHGSGNYISGN”, the “soluble fraction (log2)” value is -0.682.

Consider “HMRFDADELQKAYDLFDADENTPFKTIKQAYYALARRHHPDKNGDQEYFKVINNAFQLIQEHRRRRDN”, for which the “soluble fraction (log2)” value was -0.437.

Consider “HMRFGNHHVYRTLMVLSDQKRKGRKQIADAVGIGEGSMRTIIEYLRGLDMIDIRQTGVKITRHGNAFL”, for which the “soluble fraction (log2)” value was -0.115.

For the sequence “HMRGAARRDRAVGERAVSKDTILDATRALLRKGSALEIRAIDIAEESGLSRQTVFQYYPVIRLIFFELSD”, the “soluble fraction (log2)” value is -0.00574.

On to “HMRGETSYANDIIKRLKQANLIVVEGTLYPLLNRLKKDGLLHYEWRESQQGPPRKYYGLTEEGEA”, for which the “soluble fraction (log2)” value was -0.273.

Consider “HMRGFGEVGQLPSGRYRARYTGPDGGRHSAPITFVARIDAEGWLVDQERMISRGEWEPPARQ”, for which the “soluble fraction (log2)” value is -0.238.

On to “HMRGFGYVRRLPSKRYQASYAGPDLQRHVAPTTFTTKADAESWLGAERKVVESGSWRPPAVREAEARLS”, for which the “soluble fraction (log2)” value was 0.462.

As to “HMRGLIEPLSQRELEVLMLMARGQSNAHIADQLNISENTIKWHGRNIFGKLGVSNRTEAVITSQEMGMLAT”, the “soluble fraction (log2)” value is -0.727.

For “HMRGRFGNAAPARNLGDHPQGGAINVKAGRYGPYVSWGKVNATLPKDSDPEKVTLEEAVALIAAKQSGQG”, the “soluble fraction (log2)” value is -0.111.

Take “HMRGVDRPLTLPRHWRRNAGRLVKVTLANGSAVTGRVLDPGEERVTLEVSGERHEVAYADVKKALVQVEF”: the “soluble fraction (log2)” value is -2.07.

For “HMRHLSVPNRQVEGALDHIRSQGWLAEGMRVFASEDGSARLIPLGPGAPLEMLEPLAKFDVISHEGKPY”, the “soluble fraction (log2)” value is -0.149.

Regarding “HMRHSLAAALTELRRLAALDLGDFFRFEYVSHTDSLGGKQQAYTEGIRVSFGVYLGVNKKDRLNVDPVV”, the “soluble fraction (log2)” value was -3.42.

Take “HMRHTRQRQAVLDALVRSGQALSPQDLLGQAKSAVPSLNLSTVYRQIKGLQDAGQIVRVELPGQPPRFEM”: the “soluble fraction (log2)” value was -0.0693.

For “HMRIAQYRQIENDLLEQINLGYYKKGDLIPTELELSATYHVSRVTVRKATDNLVAKGILQRVAGVGTFVSR”, the “soluble fraction (log2)” value is -3.14.

For “HMRIATVTPIEEDQASDRVVAVYNDIKSTKQIDFIPNFWKVIAVNPDLLEQVWGQLKTLMHPEEVG”, the “soluble fraction (log2)” value is -0.996.

With “HMRIEDTMDYINKIKEKLKNNGGVITSKEFTRSNIPTIYLTRMVETGELIRIDRGIYINSSG”, the “soluble fraction (log2)” value was -0.781.

With “HMRIEYYDDEELDRYIGTPASGYREAAVEEFREILLTLDADDVPGWVRSLQLRGIEFPESLRPELYL”, the “soluble fraction (log2)” value is -0.568.

Turning to “HMRIFDDNMIFPTEAEISAALKRLVMDLPKVGFLQGHGERAVDNVGERAYSMFTHANNFRYALINQGFVT”, the “soluble fraction (log2)” value was -0.029.

Turning to “HMRIHKQLGDRIRNLRLSSGMNQEELAFKSGISAAHLGQIERGLKSPTISTIQKIAKALNVTLPILF”, the “soluble fraction (log2)” value was -0.631.

As to “HMRININNASARQIADALPGVGLKTARDIKDFQTTLSGERYTRLDQLHSIKRVDWDEIFKADLVRV”, the “soluble fraction (log2)” value was -0.0802.

In the case of “HMRISMRDQVYEIIKNRILSREYSLGEPINIVHLSKELGISNTPIREALSQLETERLITINSNQKYHVT”, the “soluble fraction (log2)” value is -0.0513.

Consider “HMRKDEFLQTLRRALNGNVPPRVVEENVRYYDGYISDEVRKGRSEEEVIEEIGDPRLIARTIEDTT”, for which the “soluble fraction (log2)” value was 0.105.

Turning to “HMRKDRKVLMERGRHIFNDLLEKEGIVATNQLMTKLLASHHLRNRDELYLMLANDDISLSSKEIKDLS”, the “soluble fraction (log2)” value was -0.409.

In the case of “HMRKEDYLPIGSVINMDDRKFRVDSVDFDKDKVSLQDMALADARMPIFWEEPLTVVRELYEQQDE”, the “soluble fraction (log2)” value is 0.135.

As to “HMRKEPSYASDIITRLKEADLIVVEGTLYPLLTRLKKDGLLSYEWRESTQGPPRKYYALTLDGET”, the “soluble fraction (log2)” value was -0.47.

For “HMRKIGDVLRLHAGGLSKRRIAVSLNIGRTAVGDYISRARRAGLGWPLPEDLSEEALERLLFPPP”, the “soluble fraction (log2)” value is -3.08.

For “HMRKIVEGVLTKKEGKWYLLTDIETYKISDASAEYHKAELNDRASALIPAQNPKVPFASLEKVFN”, the “soluble fraction (log2)” value is -1.01.

These data come from the domain aggregation screens of Martell et al. (2025).
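Further: 20 min heating vs room temperature control held 20 min.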
